From patent US20220064294A1 (ARCUS BIOSCIENCES, published 2022)
Positions count from the first letter of the chain named.

T1: human TIGIT, full length, on cells (human, UniProt Q495A1 22-244)
T1 construct: also called hTIGIT; hTIGIT-CHO
T1 sequence: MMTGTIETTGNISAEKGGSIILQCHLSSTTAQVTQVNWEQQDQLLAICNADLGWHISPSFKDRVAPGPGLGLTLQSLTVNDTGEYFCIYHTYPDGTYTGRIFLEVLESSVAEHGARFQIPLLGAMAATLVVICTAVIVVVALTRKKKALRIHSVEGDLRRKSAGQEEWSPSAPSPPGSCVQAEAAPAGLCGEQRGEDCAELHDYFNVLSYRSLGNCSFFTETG

T2: soluble His-tagged TIGIT (Acro Biosystems, Cat #No. TIT-H52H3) (human, UniProt Q495A1 22-141)
T2 construct: Bought protein; also called His-tagged human TIGIT
T2 sequence (looked up): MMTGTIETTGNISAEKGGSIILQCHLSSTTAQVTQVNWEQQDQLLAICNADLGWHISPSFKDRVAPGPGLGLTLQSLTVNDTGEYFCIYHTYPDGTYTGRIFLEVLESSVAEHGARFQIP

T3: cTIGIT-His (cynomolgus monkey)
T3 construct: also called His-tagged cyno TIGIT protein extracellular domain; soluble cTIGIT-His
T3 chain: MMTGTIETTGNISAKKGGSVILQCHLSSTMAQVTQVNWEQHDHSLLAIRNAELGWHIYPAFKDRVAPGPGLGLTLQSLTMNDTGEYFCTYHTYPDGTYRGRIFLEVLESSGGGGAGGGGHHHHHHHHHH

T4: hTIGIT-His (human)
T4 construct: also called His-tagged human TIGIT protein extracellular domain; soluble hTIGIT-His
T4 chain: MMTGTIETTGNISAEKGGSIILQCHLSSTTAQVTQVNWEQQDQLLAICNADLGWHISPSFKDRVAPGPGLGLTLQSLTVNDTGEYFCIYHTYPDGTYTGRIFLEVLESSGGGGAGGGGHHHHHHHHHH

B1: Ch24F8 (antibody, human IgG1, V domains shown)
VH: DVQLQESGPDLVKPSQSLSLTCTVTGYSITSGYSWHWIRQFPGNKLDWMGYVHYSGSTNYNPSLKSRISITRDTSKNQFFLQLNSVTTEDTATFYCARMDYGNYGGAMDYWGQGTSVTVSS
VL: EIVMTQSHKFMSTSVGDRVSITCKASQDVRTAVAWYQQKPGQSPKLLIYSASYRYTGVPDRFTGSGSGTDFTFTISSVQAEDLAVYYCQQYYSTQWTFGGGTKLEIK
notes: also called full-length chimera antibody of 24F8 mouse VH+VL and human IgG1/kappa constant domains
B2: Ch30M18 (antibody, human IgG1, V domains shown)
VH: EVQLQQSGPELVKPGASVKISCKTSGYTFTEYTMHWVKQSHGKSLEWIGGINPNNGGTSYNQKFKGKATLTVDKSSSTAYMELRSLTSEDSAVYYCARSGHMDYGYVYWGQGTTLTVSS
VL: B1 VL with E1D, D28Y, R30S, A51P, Y91H, Q95P
notes: also called recombinant anti-TIGIT mouse/human chimera antibody 30M18
B3: Ch5J24 (antibody, human IgG1, V domains shown)
VH: QVQLQQSGAELVRPGTSVKMSCKAAGYTFTNHWIGWVKQRPGHGLEWIGDIYPGGGYTNYNEKFKGKATLTADTSSSTAYMYLSSLTSEDSAIYYCARSYGYDLYAMDYWGQGTSVTVSS
VL: DIQMTQSPSSLSASLGERVSLTCRASQEISGYLSWLQQKPDGTIKRLIYAASTLGSGVPKRFSGSRSGSDYSLTISSLESEDFADYYCLQYDSYPFTFGAGTKLELK
notes: also called recombinant anti-TIGIT mouse/human chimera antibody 5J24
B4: Ch21B9 (antibody, human IgG1, V domains shown)
VH: EVQLVESGGGLVKPGGSLKLSCTASGFTFSSYAMSWVRQSPEKRLEWVAEISSGGSYTYYTDTVTGRFTISRDNAKNTLYLEMSSLRSEDTAMYYCARKRRDYYGMDYWGQGTSVTVSS
VL: DVQITQSPSYLAASPGETITINCRASKSISKYLAWYQEKPGKTNKLLIYSGSTLQTGIPSRFSGSGSGTDFTLTISSLEPEDFAMYYCQQHNEYPWTFGGGTKLEIK
notes: also called recombinant anti-TIGIT mouse/human chimera antibody 21B9
B5: Ch22B22 (antibody, human IgG1, V domains shown)
VH: B4 VH with T23A, T61P, G105A
VL: B4 VL with T56S
notes: Expressed in HEK293, purified on Protein A; also called recombinant anti-TIGIT mouse/human chimera antibody 22B22
B6: Ch28O12 (antibody, human IgG1, V domains shown)
VH: B4 VH with T23A, S31N, S53G, Y60H, T61P, G105A
VL: B4 VL with T56S
notes: also called recombinant anti-TIGIT mouse/human chimera antibody 28O12
B7: Ch21B16 (antibody, human IgG1, V domains shown)
VH: B4 VH with T23A, S31T, S56T, Y60F, T61P, G105A
VL: B4 VL with T56S, M85V
notes: also called recombinant anti-TIGIT mouse/human chimera antibody 21B16
B8: 30M18 (antibody, V domains shown)
VH: B2 VH
VL: B1 VL with E1D, D28Y, R30S, A51P, Y91H, Q95P
notes: Mouse monoclonal antibody purified from hybridoma on Protein G; also called mAb 30M18; mouse anti-TIGIT clone 30M18

What follows are binders tested against T1, human TIGIT, full length, on cells (assay: flow cytometry, endogenous TIGIT on isolated human CD4+ T cells).
Method: (§1) The ability of chimera anti-TIGIT antibodies to bind to endogenously expressed TIGIT on isolated human CD4⁺ and CD8⁺ cells was tested using a flow cytometry assay. Human CD4⁺ or CD8⁺ T cells were isolated from human whole blood using RosetteSep™ Human CD4⁺ T cell Enrichment Cocktail (Stemcell, Cat #15022) or Human CD8⁺ T cell enrichment Cocktail (Stemcell, […]), respectively. […] However, differences in max binding activity (MFImax) was observed between clones.

CD4+ MFImax [MFI]	EC50 [pM]	Binder
210	130	B1
125	197	B2
125	73	B3
150	29	B4
140	97	B5
190	141	B6
180	119	B7

The binders below were run against T1, human TIGIT, full length, on cells (assay: flow cytometry on hTIGIT-CHO cells).
Method: (§2) These clones were further expanded, and antibodies were purified using a Protein G column. These purified antibodies were tested for binding to human and cyno TIGIT expressed on cell surface by flow cytometry. Stable CHO-K1 cell lines expressing full length human TIGIT clone 2A7 (Swiss-Prot Q495A1; SEQ ID NO: 80) or full length cyno TIGIT clone C10 (Swiss-Prot A0A2K5UW92; SEQ ID NO: 84) were developed. For the flow assay, cells were collected and incubated in 100 μL of HBSS buffer in the presence (or absence) of various concentrations of antibodies for 1 hr at 4° C. After washing with HBSS, antibody binding on cells was detected with 2 μg/mL of Alexa488-labeled goat anti-mouse IgG antibody (ThermoFisher Scientific, Cat #A-11001) for 30 min at 4° C. Cells were then washed and resuspended in PBS and subjected to flow cytometry using an Attune NxT flow cytometer (ThermoFisher Scientific, Waltham, Mass.). The geometric mean of the fluorescence intensity was obtained for the whole single cell population. Antibodies capable of binding to both human and cyno TIGIT expressed on cell surface were further tested for their blocking activity against recombinant human CD155 binding to human TIGIT on the surface of CHO cells. CHO-hTIGIT cells (10⁵ cells) were incubated with 2.5 μg/mL hCD155-Fc protein in the presence of various concentrations of antibody at room temperature for 1 hr. […] Cells were then washed and subjected to flow cytometry analysis.
(§3) The binding capability of these chimera anti-TIGIT antibodies to cell surface overexpressed human and cyno TIGIT was confirmed utilizing the flow cytometry assay previously described. After incubation of chimera anti-TIGIT antibody with hTIGIT-CHO or cTIGIT-CHO, bound antibody was detected using Alexa488 conjugated goat anti-human IgG antibody (ThermoFisher Scientific, Cat #A-11013). Antibody functional activity in inhibiting recombinant hCD155-hFc binding to hTIGIT-CHO-K1 cells was also determined using flow assay as previously described.

EC50 [pM]	Binder
150	B1
336	B2
131	B3
102	B4
160	B5
159	B6
120	B7

What follows are binders tested against T2, soluble His-tagged TIGIT (Acro …) (assay: SPR, ProteOn XPR36, antibody on Protein A chip, soluble His-tagged TIGIT as analyte, 25 C).
Method: The kinetic binding of these recombinant anti-TIGIT antibodies to human TIGIT was determined by surface plasmon resonance (SPR) using a Bio-Rad ProteOn XPR36 instrument. Recombinant antibodies were immobilized using a Protein A coated GLC sensor chip, and soluble His-tagged TIGIT (Acro Biosystems, Cat #No. TIT-H52H3) was used as the analyte. The binding constants were determined at 25° C.

Kd [pM]	koff [s⁻¹]	kon [M⁻¹ s⁻¹]	Binder
35	7.5e-05	2.15e+06	B1
2380	0.00173	727000	B2
3850	0.0214	5.57e+06	B3
7100	0.074	1.05e+07	B4
9780	0.0141	1.44e+06	B5
904	0.00113	1.26e+06	B6
6300	0.00929	1.47e+06	B7

The binders below were run against T5, cynomolgus monkey TIGIT, full length, on cells (cynomolgus monkey) (assay: flow cytometry on cTIGIT-CHO cells).
T5 construct: Whole entry of 312 amino acids; also called cyno TIGIT; cTIGIT
Method: as §2, §3

EC50 [pM]	Binder
199	B1
6140	B2
212	B3
180	B4
240	B5
358	B6
420	B7

What follows are binders tested against T1, human TIGIT, full length, on cells (assay: flow cytometry, inhibition of hCD155-Fc binding to CHO-hTIGIT cells).
Method: as §2

IC50 [pM]	Binder
2190	B8

The binders below were run against T1, human TIGIT, full length, on cells (assay: flow cytometry on CHO-K1 cells expressing human TIGIT).
Method: as §2

EC50 [pM]	Binder
825	B8

Target: T3, cTIGIT-His
Experiment: SPR, Biacore T200, antibody captured on anti-human IgG chip, cTIGIT-His as analyte
Method: (§4) The purified, full-length antibodies Hu24F8.1-IgG1.AA (containing VH1+VL2) and Hu24F8.2-IgG1.AA (containing VH2+VL2), together with the full-length chimera antibody of 24F8 mouse VH+VL and human IgG1/kappa constant domains (Ch24F8), were analyzed by SPR using a Biacore T200 instrument with antibody capture using an anti-human IgG coated chip and soluble hTIGIT-His or cTIGIT-His as the analyte.

Kd [pM]	koff [s⁻¹]	kon [M⁻¹ s⁻¹]	Binder
1660	0.00109	658000	B1

Target: T4, hTIGIT-His
Experiment: SPR, Biacore T200, antibody captured on anti-human IgG chip, hTIGIT-His as analyte
Method: as §4

Kd [pM]	koff [s⁻¹]	kon [M⁻¹ s⁻¹]	Binder
183	0.000156	853000	B1

These binders were tested against T1, human TIGIT, full length, on cells (assay: flow cytometry, inhibition of hCD155-hFc binding to hTIGIT-CHO-K1 cells).
Method: as §2, §3

IC50 [pM]	Binder
620	B1
2180	B2
700	B3
800	B4
1160	B5
480	B6
200	B7

The binders below were run against T5, cynomolgus monkey TIGIT, full length, … (assay: flow cytometry on CHO-K1 cells expressing cyno TIGIT).
Method: as §2

EC50 [pM]	Binder
1170	B8

What follows are binders tested against T1, human TIGIT, full length, on cells (assay: flow cytometry, endogenous TIGIT on isolated human CD8+ T cells).
Method: as §1

CD8+ MFImax [MFI]	EC50 [pM]	Binder
5800	177	B1
3500	293	B2
4500	117	B3
4500	62	B4
5000	175	B5
7200	249	B6
5200	160	B7
